The text below walks through data of paper doi:10.1101/2022.07.31.502239, “Structural basis for assembly and lipid-mediated gating of LRRC8A:C volume-regulated anion channels” (bioRxiv, 2022).

The series deals with the molecule itself. Briefly: single molecule pulldown with stepwise photobleaching subunit counting; C-terminal EGFP-HA fusion expressed alone in LRRC8 knockout HEK293 cells, GDN extract used directly, immobilised on passivated coverslips with biotinylated anti-HA, TIRF imaging of EGFP bleaching steps.

B1: HVCN1 with C-terminal EGFP and HA-tag (natural protein, UniProt Q96D96 1-273, looked up)
chain: MATWDEKAVTRRAKVAPAERMSKFLRHFTVVGDDYHAWNINYKKWENEEEEEEEEQPPPTPVSGEEGRAAAPDVAPAPGPAPRAPLDFRGMLRKLFSSHRFQVIIICLVVLDALLVLAELILDLKIIQPDKNNYAAMVFHYMSITILVFFMMEIIFKLFVFRLEFFHHKFEILDAVVVVVSFILDIVLLFQEHQFEALGLLILLRLWRVARIINGIIISVKTRSERQLLRLKQMNVQLAAKIQHLEFSCSEKEQEIERLNKLLRQHGLLGEVN
notes: HVCN1 (HV1) voltage-gated proton channel; Control for subunit counting; also called HV1-EGFP; HV1; source: LRRC8 knockout HEK293 cells, transfected, GDN detergent extract of membranes; not shown: EGFP, C-terminal, kept; HA, C-terminal, kept
Turning to B1, the “stoichiometry N” value is 2.
